From patent US12186353B2, “Method of reducing neuronal microtubule binding protein Tau (Tau) levels” (ADAERATA, LIMITED PARTNERSHIP, priority 2018, dated 2025)

What was measured:
human Tau fused with GFP = experiment: Flow cytometry of Tau-GFP over DsRed in DAOY cells transfected with Numb isoforms; assay type: cell-based; conditions: three days after transfection, compared to controls (Myc-Tag)
Text: FIGS. 6A-I: Isoform Numb-72 interacts with Tau and regulates Tau level. FIG. 6A. Schematic of 4 Numb isoforms, differing with the presence or the absence of an insertion (arrowhead) in PTB domain arrowhead, and the presence or the absence of an insertion in the proline-rich region (PRR). FIG. 6B. Coimmunoprecipitation of Tau and 4 isoforms of Numb in HEK293 cells. Each Numb isoform was transfected in HEK293T cells together with a flag-tagged version of Tau and immunoprecipitation was perform 24 hours later with a flag antibody and blotted for Numb. […] FIG. 6C. Detection of Tau::GFP level in presence of 4 isoforms of Numb by western blot in HEK293. All the Numb isoforms were transfected with a Tau::GFP fusion protein in HEK293T cells and the levels of Tau::GFP was analysed by western blot 48 hours after transfection. FIG. 6D. […] DsRed-IRES-Tau::EGFP expressing cells were used to assess the abundance of Tau by monitoring the Tau-GFP to DsRed fluorescence ratio. […] FIGS. 6F-J. Fluorescence-activated cell sorting (FACs) analysis of the 4 Numb isoforms affected 3 days after transfection on ratio DsRed versus DsRed and GFP-positives cells compared to the control (Myc-Tag). FIG. 6K Quantification represents fold change for 5 experiments, +/− SEM, **p≤0.001; n.s. non-significant Anova 1-way test. […]

[1] = test system: primary RGC neuron cultures; experiment: Axonal blebs, neurite length and branching in transfected primary RGC neuron cultures of AD and tauopathy mice; assay type: cell-based, mouse; conditions: for number of axonal blebs: plasmid transfection, two weeks later, vs GFP
Procedure: FIGS. 10A-H: Numb72 reduces blebbing in AD mouse model RGCs. FIG. 10A. Primary retinal cultures were performed at P8 and cells were transfected using an Amaxa™ electroporator and analysed 14 days later. Cells GFP and NF165 positive were analysed in B6129J mouse line (Control) and triple transgenic mice (3×TGAD) expressing three mutations associated with familial Alzheimer's disease (APP Swedish, MAPT P301L, and PSEN1 M146V) after transfection of GFP or Numb-72 IRES::GFP. […] FIGS. 10B-D. Quantification of relative number of axonal blebs (FIG. 10B); axon (neurites) length (FIG. 10C) and branching number (FIG. 10D) in Control (B6129J) and 3×TGAD RGC axons was performed. Control numbers were normalized to 1. Error bars represent SEM, ** p≤0.001; n.s. non-significant; Anova 2 way for blebs and Student's t test for length and branching. FIG. 10E Primary retinal culture was performed at P8 and cells were transfected using an Amaxa™ electroporator and analysed 14 days later. Cells GFP and NF165 positive were analysed in C57b6 mouse line (Control) and P301S Tau mutant (TauP301S) (model of tauopathy) after transfection of GFP or Numb-72 IRES::GFP. […] FIGS. 10F-H. Quantification of relative number of axonal blebs (FIG. 10F); axon (neurites) length (FIG. 10G) and branching number (FIG. 7H) in Control (C57b6) (Control, FIGS. 10F-H) and TauP301S (FIGS. 10F-H) RGC axons was performed. Control numbers were normalized to 1. Error bars represent SEM, * p≤0.05; n.s. non-significant Anova 2 way for blebs and Student's t test for length and branching.
Retinal tissues were isolated from eyeballs of postnatal day 7 (P7) mice, cut in small pieces and incubated in PBS containing 5 mg/ml of papain, 0.24 mg/ml of L-cysteine, 0.5 mmol/l of EDTA, and 10 U/ml of DNase I for 2×3 min. The reaction was stopped by adding Lo-Ovo solution in PBS, and 10 U/ml of DNase I. The retinal cells were mechanically dissociated by gentle pipetting and collected as a suspension. Procedures were conducted at room temperature in a laminar flow hood. After centrifugation at 1000 rpm for 11 min, cells were resuspended in RGCs media and plate on glass coverslips at 50′000 cells/coverslips on a 24 wells plate and incubated at 37° C.; 8% CO2 for 2 weeks, half media was changed every 3 days. […]
To determine the neuroprotective effects of Numb-72, the inventors prepared primary RGC neuron cultures from control mice, triple transgenic mice (3×TGAD) expressing three mutations associated with familial Alzheimer's disease (APP Swedish, MAPT P301L, and PSEN1 M146V), or a P301S Tau mutant (model of tauopathy), and then expressed GFP or Numb-72 in these neurons by plasmid transfection. Two weeks later, the length of neurites, the number of branches, and the number of axonal blebs were counted.

[2] = control, 3xTGAD and P301S RGC neurons, two weeks after transfection

B1: Numb-72: 72 kDa Numb isoform with long PTB domain and long PRR; human isoform 1 (SEQ ID NO: 1); expressed by transfection (protein)
chain: MNKLRQSFRRKKDVYVPEASRPHQWQTDEEGVRTGKCSFPVKYLGHVEVDESRGMHICEDAVKRLKAERKFFKGFFGKTGKKAVKAVLWVSADGLRVVDEKTKDLIVDQTIEKVSFCAPDRNFDRAFSYICRDGTTRRWICHCFMAVKDTGERLSHAVGCAFAACLERKQKREKECGVTATFDASRTTFTREGSFRVTTATEQAEREEIMKQMQDAKKAETDKIVVGSSVAPGNTAPSPSSPTSPTSDATTSLEMNNPHAIPRRHAPIEQLARQGSFRGFPALSQKMSPFKRQLSLRINELPSTMQRKTDFPIKNAVPEVEGEAESISSLCSQITNAFSTPEDPFSSAPMTKPVTVVAPQSPTFQANGTDSAFHVLAKPAHTALAPVAMPVRETNPWAHAPDAANKEIAATCSGTEWGQSSGAASPGLFQAGHRRTPSEADRWLEEVSKSVRAQQPQASAAPLQPVLQPPPPTAISQPASPFQGNAFLTSQPVPVGVVPALQPAFVPAQSYPVANGMPYPAPNVPVVGITPSQMVANVFGTAGHPQAAHPHQSPSLVRQQTFPHYEASSATTSPFFKPPAQHLNGSAAFNGVDDGRLASADRHTEVPTGTCPVDPFEAQWAALENKSKQRTNPSPTNPFSSDLQKTFEIEL
modifications: homo sapiens
notes: 72 kDa Numb isoform with long PTB domain and long PRR; expressed by transfection
proportion of cells with low levels of Tau-GFP (Tau-GFP over DsRed) (human Tau fused with GFP): increased the proportion of cells with low levels of Tau-GFP | number of axonal blebs ([1]; 3xTGAD RGC neurons): reduced back to control levels | number of axonal blebs ([1]; P301S Tau mutant RGC neurons): reduced back to control levels | neurite length [1, 2]: not changed in any condition | number of branches [1, 2]: not changed in any condition
